Experiment [1] addresses T1, mFc-hNKG2D (human, UniProt P26718 73-216).
T1 construct: extracellular domain; Made in house (Dragonfly Tx); the order of tag and ECD follows the name mFc-hNKG2D; also called mFc-tagged human NKG2D; not shown: mouse Fc tag
T1 sequence (looked up): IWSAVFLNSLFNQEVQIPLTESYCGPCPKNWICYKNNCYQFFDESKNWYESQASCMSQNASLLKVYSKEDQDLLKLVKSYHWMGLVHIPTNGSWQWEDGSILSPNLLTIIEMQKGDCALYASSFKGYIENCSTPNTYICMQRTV
The experiment is described as follows: SPR Biacore 8K 37 C; mFc-hNKG2D captured on anti-mFc chip, TriNKET as analyte; 1:1 kinetic fit; average of 4.

Experiment [2] addresses T2, Human CD16a V158 (FcγRIIIa V158) (human, UniProt P08637 17-208, biotinylated (site not stated)).
T2 construct: V158 is the allele name in mature numbering; also called hCD16aV; hCD16a V158
The experiment is described as follows: SPR; biotinylated CD16a V158 captured on SA chip, TriNKET as analyte; 1:1 kinetic fit; control sample, n=3. For orientation: Surface plasmon resonance follows binding to a sensor surface in real time, without labels.

Experiment [3] deals with T3, Human CLEC12A-His (human, UniProt Q5QGZ9 65-265).
T3 construct: Recombinant soluble protein made in house (Dragonfly Tx); The hCLEC12A spot of the HuProt array is written under this molecule as well; also called hCLEC12A-His; hCLEC12A; not shown: His tag
T3 sequence: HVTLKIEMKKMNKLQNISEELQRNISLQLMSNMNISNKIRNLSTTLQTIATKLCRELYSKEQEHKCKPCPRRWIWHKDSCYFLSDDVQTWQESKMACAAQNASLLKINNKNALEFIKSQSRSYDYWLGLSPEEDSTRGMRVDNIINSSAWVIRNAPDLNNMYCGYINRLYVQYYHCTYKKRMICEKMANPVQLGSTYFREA
Kind of experiment: SPR Biacore 8K 37 C; TriNKET captured on anti-hFc chip, hCLEC12A-His as analyte; 1:1 fit; control sample, n=2.

Experiment [4] has as its target T3, Human CLEC12A-His. The experiment is described as follows: SPR Biacore 8K 37 C; TriNKET captured on anti-hFc chip, hCLEC12A-His as analyte; 1:1 fit; after 2 wks 40 C at pH 8.0, n=2.
The target of experiment [5] is T1, mFc-hNKG2D. Kind of experiment: SPR Biacore 8K 37 C; mFc-hNKG2D captured on anti-mFc chip, TriNKET as analyte; 1:1 kinetic fit; un-oxidized control.
Protocol: (§1) Association was monitored for 60 seconds and dissociation was monitored for 60 seconds. Surfaces were regenerated between cycles with three pulses of 10 mM glycine-HCl, pH 1.7 injected for 20 seconds at 100 μL/min. HBS-EP+ (1×) buffer was used throughout the experiment. Data were analyzed using Biacore 8K Insight evaluation software (GE Healthcare).
For experiment [6], the target named is T1, mFc-hNKG2D. Kind of experiment: SPR Biacore 8K 37 C; mFc-hNKG2D captured on anti-mFc chip, TriNKET as analyte; 1:1 kinetic fit; after 4 wks 40 C in HST pH 6.0.
Protocol: as §1
The target of the next experiment is T4, De-sialylated CLEC12A (human, UniProt Q5QGZ9 65-265, treated with neuraminidase (terminal sialic acids removed)).
T4 construct: Recombinant human CLEC12A after neuraminidase; also called de-sialylated hCLEC12A
T4 sequence: T3 sequence
Kind of experiment: SPR, de-sialylated CLEC12A; average of 3 replicates.

The target in experiment [7] is T5, Human CLEC12A-His (recombinant, K244 WT) (human, UniProt Q5QGZ9 65-265).
T5 construct: Made in house (Dragonfly Tx); also called hCLEC12A; hCLEC12A-His; not shown: His tag
T5 sequence: T3 sequence
The experiment is described as follows: SPR, two-state fit.

For a further experiment, the target named is T6, Human CLEC12A-K244Q-His (human, UniProt Q5QGZ9 65-265).
T6 construct: also called hCLEC12A (Q244); CLEC12A (Q244); not shown: His tag
T6 chain: T3 sequence with K180Q
Kind of experiment: SPR, two-state fit.

In experiment [8] the target is T5, Human CLEC12A-His (recombinant, K244 WT). Kind of experiment: SPR, two-state fit; fully purified protein after low pH hold.
Protocol: (§2) Briefly, human Fc specific antibodies were covalently immobilized at a density ˜8000-10000 resonance units (RU) on carboxy methyl dextran matrix of a CM5 biosensor chip via amine-coupling chemistry to create an anti-hFc IgG chip. […] Association was monitored for 300 seconds and dissociation was monitored for 600 seconds. Surfaces were regenerated between cycles with three pulses of 10 mM glycine-HCl, pH 1.7 injected for 20 seconds at 100 μl/min. HBS-EP+ (1×) with 0.1 mg/ml BSA was used as running buffer throughout the experiment. Experiments were performed at physiological temperature of 37° C. To obtain kinetic rate constants and overall binding affinity, double-referenced data were fit to a two-state kinetic model using Biacore 8K Insight Evaluation software (Cytiva).
Experiment [9] deals with T7, Human CLEC12A expressed on cells (Ba/F3-hCLEC12A, PL21, HL60) (human, UniProt Q5QGZ9 1-265).
T7 sequence: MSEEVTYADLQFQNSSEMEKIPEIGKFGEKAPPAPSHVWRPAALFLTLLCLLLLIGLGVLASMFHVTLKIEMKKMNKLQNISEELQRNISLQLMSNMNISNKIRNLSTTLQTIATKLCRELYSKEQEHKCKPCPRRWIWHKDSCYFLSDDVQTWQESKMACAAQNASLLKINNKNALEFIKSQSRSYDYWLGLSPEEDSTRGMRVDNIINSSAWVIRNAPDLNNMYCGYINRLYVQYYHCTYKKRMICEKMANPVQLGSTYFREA
Kind of experiment: cell-based or functional assay.

In experiment [10] the target is T5, Human CLEC12A-His (recombinant, K244 WT). The experiment is described as follows: SPR 37C, two-state fit (ka1), average.
Protocol: as §2
In experiment [11] the target is T8, recombinant human CLEC12A-His (human, UniProt Q5QGZ9 65-265).
T8 construct: also called hCLEC12A-His; hCLEC12A
T8 sequence: T3 sequence
Kind of experiment: SPR 37C, average.

In experiment [12] the target is T9, human CLEC12A expressed on cells (human, UniProt Q5QGZ9 1-265).
T9 construct: Transduced isogenic cells or endogenous expression on AML cells; also called RMA-hCLEC12A; Ba/F3-hCLEC12A
T9 sequence: T7 sequence
Kind of experiment: flow cytometry, HL60. On the technique in general: Flow cytometry measures light scatter and fluorescence of single cells or particles in a stream.

A further experiment has as its target T10, recombinant human FcRn (human, UniProt P55899 24-297; P61769 21-119).
T10 construct: also called hFcRn
Kind of experiment: SPR 25C, pH 6.0, steady state; pH 6.0; fourth replicate.

Broadly, the koff is a measure of how fast the partners let go of each other. A word on the kon: it is the rate constant with which the complex forms. What is called Kd is the concentration at which binding is half-saturated. In general, EC50 refers to the concentration giving half of the maximal effect. Read a low EC50 as greater potency.

Where a chain is given by its changes, count along the chain named. Names and notes keep the numbering of the source.

T2 sequence (P08637 17-208 F176V limits assumed): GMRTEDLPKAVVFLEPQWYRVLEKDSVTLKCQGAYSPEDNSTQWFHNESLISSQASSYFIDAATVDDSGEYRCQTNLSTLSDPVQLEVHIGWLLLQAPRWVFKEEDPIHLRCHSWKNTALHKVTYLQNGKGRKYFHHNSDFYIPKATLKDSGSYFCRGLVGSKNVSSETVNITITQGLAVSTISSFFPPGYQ
T10 sequence (P55899 24-297 limits assumed, chain 1 of 2): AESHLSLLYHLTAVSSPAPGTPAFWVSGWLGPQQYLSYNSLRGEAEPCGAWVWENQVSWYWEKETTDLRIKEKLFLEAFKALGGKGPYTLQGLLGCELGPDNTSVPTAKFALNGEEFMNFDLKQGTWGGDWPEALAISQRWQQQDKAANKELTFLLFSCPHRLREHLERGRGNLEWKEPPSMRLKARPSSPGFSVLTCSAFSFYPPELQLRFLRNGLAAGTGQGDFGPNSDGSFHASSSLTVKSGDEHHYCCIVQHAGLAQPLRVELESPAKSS
T10 sequence (P61769 21-119 limits assumed, chain 2 of 2): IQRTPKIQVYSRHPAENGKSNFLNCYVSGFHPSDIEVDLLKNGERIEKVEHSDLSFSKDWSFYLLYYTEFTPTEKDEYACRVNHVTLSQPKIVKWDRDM
Protocol for Human CLEC12A-K244Q-His: as §2

B1: F3'-1602 TriNKET (bispecific antibody, human IgG1, kappa)
chain: QLQLQESGPGLVKPSETLSLTCTVSGFSLTNYGLHWIRQPPGKCLEWIGVIWSGGKTDYNPSLKSRVTISKDTSKNQFSLKLSSVQAADTAVYYCAKYDYDDSLDYWGQGTLVTVSSGGGGSGGGGSGGGGSGGGGSDIQMTQSPSSLSASVGDRVTITCHASQNINFWLSWYQQKPGKAPKLLIYEASNLHTGVPSRFSGSGSGTRFTLTISSLQPEDIATYYCQQSHSYPLTFGCGTKLEIKGSDKTHTCPPCPAPELLGGPSVFLFPPKPKDTLMISRTPEVTCVVVDVSHEDPEVKFNWYVDGVEVHNAKTKPREEQYNSTYRVVSVLTVLHQDWLNGKEYKCKVSNKALPAPIEKTISKAKGQPREPRVYTLPPCRDELTKNQVSLTCLVKGFYPSDIAVEWESNGQPENNYKTTPPVLVSDGSFTLYSKLTVDKSRWQQGNVFSCSVMHEALHNHYTQKSLSLSPG
heavy: EVQLVESGGGLVKPGGSLRLSCAASGFTFSSYSMNWVRQAPGKGLEWVSSISSSSSYIYYADSVKGRFTISRDNAKNSLYLQMNSLRAEDTAVYYCARGAPIGAAAGWFDPWGQGTLVTVSSASTKGPSVFPLAPSSKSTSGGTAALGCLVKDYFPEPVTVSWNSGALTSGVHTFPAVLQSSGLYSLSSVVTVPSSSLGTQTYICNVNHKPSNTKVDKKVEPKSCDKTHTCPPCPAPELLGGPSVFLFPPKPKDTLMISRTPEVTCVVVDVSHEDPEVKFNWYVDGVEVHNAKTKPREEQYNSTYRVVSVLTVLHQDWLNGKEYKCKVSNKALPAPIEKTISKAKGQPREPQVCTLPPSRDELTENQVSLTCLVKGFYPSDIAVEWESNGQPENNYKTTPPVLDSDGSFFLYSWLTVDKSRWQQGNVFSCSVMHEALHNHYTQKSLSLSPG
light: DIQMTQSPSSVSASVGDRVTITCRASQGISSWLAWYQQKPGKAPKLLIYAASSLQSGVPSRFSGSGSGTDFTLTISSLQPEDFATYYCQQGVSFPRTFGGGTKVEIKRTVAAPSVFIFPPSDEQLKSGTASVVCLLNNFYPREAKVQWKVDNALQSGNSQESVTEQDSKDSTYSLSSTLTLSKADYEKHKVYACEVTHQGLSSPVTKSFNRGEC
notes: Trispecific F3' format: CLEC12A scFv-Fc paired with NKG2D Fab-Fc; Stressed and control samples of the stability studies are the same molecule; also called AB0237
For B1, the koff is 0.13 s⁻¹ in the experiment with mFc-hNKG2D [1]; 0.024 s⁻¹ in [2]; 0.000735 s⁻¹ with Human CLEC12A-His [3]; 0.000845 s⁻¹ with Human CLEC12A-His [4]; 0.107 s⁻¹ with mFc-hNKG2D [5]; 0.0986 s⁻¹ in the experiment with mFc-hNKG2D [6]. Besides, the kon with mFc-hNKG2D [1] is 180000 M⁻¹ s⁻¹; in [2], 113000 M⁻¹ s⁻¹; in the experiment with Human CLEC12A-His [3] it was 750000 M⁻¹ s⁻¹; with Human CLEC12A-His [4] it was 835000 M⁻¹ s⁻¹; with mFc-hNKG2D [5], 143000 M⁻¹ s⁻¹; with mFc-hNKG2D [6], 129000 M⁻¹ s⁻¹. Further, the dissociation constant Kd in experiment [2] came out at 212 nM; with Human CLEC12A-His [3], 0.98 nM; with Human CLEC12A-His [4], 1 nM; in the experiment with mFc-hNKG2D [5], 750 nM; in the experiment with mFc-hNKG2D [6] it was 762 nM.

B2: AB0192 TriNKET (other)
chain: EVQLVESGGGVVQPGGSLRLSCAASGFTFNAFGMHWVRQAPGKCLEWVAFISSGSTSIYYANTVKGRFTISRDNSKNTLYLQMNSLRAEDTAVYYCARDGYPTGGAMDYWGQGTSVTVSSGGGGSGGGGSGGGGSGGGGSDIQMTQSPSSLSASVGDRVTITCKASQDIYNYLSWFQQKPGKAPKPLIYRANILVSGVPSRFSGSGSGQDYTFTISSLQPEDIATYYCLQFDAFPFTFGCGTKLEIKGSDKTHTCPPCPAPELLGGPSVFLFPPKPKDTLMISRTPEVTCVVVDVSHEDPEVKFNWYVDGVEVHNAKTKPREEQYNSTYRVVSVLTVLHQDWLNGKEYKCKVSNKALPAPIEKTISKAKGQPREPRVYTLPPCRDELTKNQVSLTCLVKGFYPSDIAVEWESNGQPENNYKTTPPVLVSDGSFTLYSKLTVDKSRWQQGNVFSCSVMHEALHNHYTQKSLSLSPG
heavy: B1 heavy
light: B1 light
notes: the condition stands under assay; also called AB0192 Lot AB0192-005
In the experiment with De-sialylated CLEC12A, B2 came in with a dissociation constant (Kd) of 1.04 nM, a koff of 0.00104 s⁻¹ and an association rate constant (kon) of 1.01e+06 M⁻¹ s⁻¹.

B3: AB0089 TriNKET (bispecific antibody, human IgG1, kappa)
chain: B1 chain with S53V, K56A, K71V, Y98G, D101G, S103T, R207D, I220F
heavy: B1 heavy
light: B1 light
notes: F3' format heterodimer of three chains; human IgG1 Fc with EW-RVT and Y349C/S354C mutations; also called AB0089 Lot AB0089-002; CLEC12A TriNKET AB0089
Turning to B3, the Kd in experiment [7] turned out to be 0.6 nM; with Human CLEC12A-K244Q-His, 1.17 nM; in experiment [8], 0.53 nM. The “EC50, NK cell induction of IFNγ and CD107a in co-culture with HL60 cells (mean of three donors)” value in experiment [9] amounted to 0.05 nM. Besides, the kon in [10] worked out at 1.04e+07 M⁻¹ s⁻¹.

B4: F3'-1602 TriNKET (other)
chain: B1 chain
heavy: B1 heavy
light: B1 light
notes: CLEC12A scFv-Fc, NKG2D A49MI Fab-Fc, human IgG1 Fc; also called AB0237
In the case of B4, in experiment [11], the Kd is 1.2 nM, the koff stood at 0.000933 s⁻¹ and the kon was 779000 M⁻¹ s⁻¹. The molecule further showed a half-maximal effective concentration (EC50) in experiment [12] of 1.1 nM. Besides, the Kd in the experiment with recombinant human FcRn was determined as 1600 nM.

Source of the values: patent US20220119534A1 (DRAGONFLY THERAPEUTICS, published 2022).
